Assays:
[1] = molecular target: T1, recombinant HER2 extracellur domain protein (UniProt P04626 23-652); test: ELISA
T1 construct: extracellular domain; ELISA antigen

[2] = molecular target: T2, recombinant CD47 extracellur domain protein (UniProt Q08722 19-139, limits assumed); test: ELISA
T2 construct: extracellular domain; ELISA antigen

[3] = molecular target: T3, HER2 and CD47 double positive CHO cell pool (UniProt P04626 23-1255; Q08722 19-323, limits assumed); test: flow cytometry, double positive against single positive CHO cell pools
T3 construct: whole, on cells; Two separate membrane proteins on one cell, not a complex; also called CD47+HER2+ double positive cells; double targets positive CHO cell

[4] = molecular target: T4, recombinant PD-L1 extracellur domain protein (UniProt Q9NZQ7 19-238, limits assumed); test: ELISA
T4 construct: extracellular domain; ELISA antigen
T4 sequence (Q9NZQ7 19-238 limits assumed): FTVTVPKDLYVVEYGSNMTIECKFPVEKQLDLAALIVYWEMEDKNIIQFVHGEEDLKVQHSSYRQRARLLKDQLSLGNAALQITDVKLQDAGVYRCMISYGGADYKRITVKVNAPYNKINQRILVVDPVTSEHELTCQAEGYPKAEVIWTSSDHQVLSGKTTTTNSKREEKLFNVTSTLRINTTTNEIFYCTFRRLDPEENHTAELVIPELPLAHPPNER

[5] = molecular target: T5, PD-L1 and CD47 double positive CHO cell pool (UniProt Q9NZQ7 19-290; Q08722 19-323, limits assumed); test: flow cytometry, double positive against single positive CHO cell pools
T5 construct: whole, on cells; Two separate membrane proteins on one cell, not a complex; also called CD47 and PD-L1 double positive cells; double targets positive CHO cell
T5 sequence (Q9NZQ7 19-290 limits assumed, chain 1 of 2): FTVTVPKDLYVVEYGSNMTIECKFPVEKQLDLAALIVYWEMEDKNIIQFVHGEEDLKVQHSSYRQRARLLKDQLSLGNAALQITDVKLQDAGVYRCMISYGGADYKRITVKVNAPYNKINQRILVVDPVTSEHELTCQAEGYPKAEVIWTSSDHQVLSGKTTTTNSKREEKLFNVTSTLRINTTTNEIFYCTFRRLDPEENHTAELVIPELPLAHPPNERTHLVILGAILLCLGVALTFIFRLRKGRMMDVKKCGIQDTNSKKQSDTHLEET
T5 sequence (Q08722 19-323 limits assumed, chain 2 of 2): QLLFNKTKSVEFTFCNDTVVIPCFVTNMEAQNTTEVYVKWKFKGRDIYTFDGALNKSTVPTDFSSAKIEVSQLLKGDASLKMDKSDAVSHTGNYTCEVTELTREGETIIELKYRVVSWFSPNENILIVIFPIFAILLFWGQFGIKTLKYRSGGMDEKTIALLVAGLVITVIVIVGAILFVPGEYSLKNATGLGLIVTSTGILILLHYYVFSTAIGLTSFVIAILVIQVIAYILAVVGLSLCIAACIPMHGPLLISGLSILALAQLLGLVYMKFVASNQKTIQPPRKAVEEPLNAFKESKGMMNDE

T2 sequence (Q08722 19-139 limits assumed): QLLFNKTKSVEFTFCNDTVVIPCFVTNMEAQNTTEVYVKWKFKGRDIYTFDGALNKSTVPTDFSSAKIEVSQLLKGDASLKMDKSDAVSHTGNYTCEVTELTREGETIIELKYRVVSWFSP

Binder | binding acitivity [1] | binding acitivity [2] | fold stronger staining than on the single target positive cells [3] | binding acitivity [4] | fold stronger staining than on the single target positive cells [5]
AbD068-1, bi-specific GCT Ab against HER2 and CD47 (bispecific antibody, human IgG1, kappa, V domains shown, Anti-HER2 single domain on IgG1 heavy chain, SIRPa domain on kappa chain; Fc of IgG1 wild type; Parents named as H16 (H016) and S007; also called ABP366 (AbD066 and AbD068-1)) VH: QVQLVQSGGGLVQAGGSLRLSCAASGRTFSSYAMAWFRQAPGKEREFVAAISWSGANIYVADSVKGRFTISRDNAKDTVYLQMNSLKPEDTAVYYCAVKLGFAPVEERQYDYWGQGTQVTVSS VL: not shown | ~100 nM | > 100 nM | ~100 fold |  | 
AbD066, bi-specific GCT Ab against HER2 and CD47 (bispecific antibody, V domains shown, Anti-HER2 single domain on IgG1 heavy chain, SIRPa domain on kappa chain; Fc of IgG1 wild type; Parents named as H069 and S012; also called ABP366 (AbD066 and AbD068-1)) VH: EVQLVESGGGLVQPGGSLRLSCAASGFNIKDTYIHWVRQAPGKEREWVARIYPTNGYTRYADSVKGRFTISRDNAKDTVYLQMNSLRAEDTAVYYCSRWGGDGFYAMDYWGQGTLVTVSS VL: ELQVIQPDKSVSVAAGESAILHCTVTSLIPVGPIQWFRGAGPARELIYNQKEGHFPRVTTVSESTKRNNMDFSIRIGNITPADAGTYYCVKFRKGSPDDVEFKSGAGTELSVRA |  | > 100 nM |  |  | 

Second part, the binder after the results:

binding acitivity [1] | binding acitivity [2] | fold stronger staining than on the single target positive cells [3] | binding acitivity [4] | fold stronger staining than on the single target positive cells [5] | Binder
 | > 100 nM |  | > 100 nM | ~10 fold | AbD036, bi-specific GCT Ab against PD-L1 and CD47 (bispecific antibody, human IgG1, kappa, L234A L235A, SIRPa domain on IgG1 heavy chain, PD-1 IgV domain on kappa chain; also called ABP336) heavy: not shown light: DSPDRPWNPPTFSPALLVVTEGDNATFTCSFSNTSESFVLNWYRMSPSNQTDKLAAFPEDRSQPGQDCRFRVTQLPNGRDFHMSVVRARRNDSGTYLCGAISRAPKAQIKESLRAELRVTERRAEVSSRTVAAPSVFIFPPSDEQLKSGTASVVCLLNNFYPREAKVQWKVDNALQSGNSQESVTEQDSKDSTYSLSSTLTLSKADYEKHKVYACEVTHQGLSSPVTKSFNRGEC
 | > 100 nM |  | > 100 nM | ~10 fold | AbD037, bi-specific GCT Ab against PD-L1 and CD47 (bispecific antibody, human IgG1, kappa, L234A L235A, SIRPa domain on IgG1 heavy chain, PD-1 IgV domain on kappa chain; Parents named as P048 and S007; also called ABP336) heavy: not shown light: DSPDRPWNPPTFSPALLVVTEGDNATFTCSFSNTSESFVLNWYRMSPSNQTDKLAAFPEDRSQPGQDCRFRVTQLPNGRDFHMSVVRARRNDSGTYLCGAISLAPKAQIKESLRAELRVTERRAEVSSRTVAAPSVFIFPPSDEQLKSGTASVVCLLNNFYPREAKVQWKVDNALQSGNSQESVTEQDSKDSTYSLSSTLTLSKADYEKHKVYACEVTHQGLSSPVTKSFNRGEC
